Here are results for 14 molecules from US20260258135A1 (BIOINTRON BIOLOGICAL, published 2026).

B1: B378737-ZH-4 (VHH)
VHH: QVQLVESGGGLVQPGGSLRLSCAASARSINGQEWYRQAPGERRELVAGITAGGSAYYTDTHKGRFTISRDNAENTGYLQMNSLSPDDTAVYYCRRQVGPNWYWGQGTQVTVSS
notes: Hotspot combination (positions 32, 61 and 97); not shown: human IgG Fc implied (supernatant captured with goat anti-human IgG Fc)
B2: B378737-ZH-1 (VHH)
VHH: B1 VHH with H61V, V97F
notes: Hotspot combination (positions 32 and 97); not shown: human IgG Fc implied (supernatant captured with goat anti-human IgG Fc)
B3: B378737-ZH-2 (VHH)
VHH: B1 VHH with H61V
notes: as for B2
B4: B378737-97-1 (VHH)
VHH: B1 VHH with Q32M, H61V, V97F
notes: Single-point mutant of B378737 (position 97); not shown: human IgG Fc implied (supernatant captured with goat anti-human IgG Fc)
B5: B378737-97-2 (VHH)
VHH: B1 VHH with Q3R, Q32M, H61V
notes: Single-point mutant of B378737 (position 97); copied as printed; not shown: human IgG Fc implied (supernatant captured with goat anti-human IgG Fc)
B6: B378737-32 (VHH)
VHH: B1 VHH with H61V, V97Y
notes: Single-point mutant of B378737 (position 32); not shown: human IgG Fc implied (supernatant captured with goat anti-human IgG Fc)
B7: B378737-61-7 (VHH)
VHH: B1 VHH with Q32M, H61L, V97Y
notes: Single-point mutant of B378737 (position 61); not shown: human IgG Fc implied (supernatant captured with goat anti-human IgG Fc)
B8: B378737-61-4 (VHH)
VHH: B1 VHH with Q32M, H61T, V97Y
notes: as for B7
B9: B378737-61-6 (VHH)
VHH: B1 VHH with Q32M, H61K, V97Y
notes: as for B7
B10: B378737-51 (VHH)
VHH: B1 VHH with Q32M, A51S, H61V, V97Y
notes: Single-point mutant of B378737 (position 51); not shown: human IgG Fc implied (supernatant captured with goat anti-human IgG Fc)
B11: B378737-61-2 (VHH)
VHH: B1 VHH with Q32M, H61Y, V97Y
notes: as for B7
B12: B378737-61-5 (VHH)
VHH: B1 VHH with Q32M, V97Y
notes: as for B7
B13: B378737-61-1 (VHH)
VHH: B1 VHH with Q32M, H61P, V97Y
notes: as for B7
B14: B378737-61-3 (VHH)
VHH: B1 VHH with Q32M, H61S, V97Y
notes: as for B7

Positions count from the first letter of the chain named.

T1 sequence (Q9NZQ7 19-238 limits assumed): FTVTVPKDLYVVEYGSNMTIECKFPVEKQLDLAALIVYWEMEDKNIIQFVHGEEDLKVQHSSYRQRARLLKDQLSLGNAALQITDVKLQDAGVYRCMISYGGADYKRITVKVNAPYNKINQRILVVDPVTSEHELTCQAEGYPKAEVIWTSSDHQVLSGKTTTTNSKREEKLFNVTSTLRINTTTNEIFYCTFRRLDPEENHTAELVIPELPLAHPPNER

The first assay has as its target T1, PDL1/His protein (human, UniProt Q9NZQ7 19-238, limits assumed, biotin-labeled in Examples 4 and 6 (site not stated); unlabeled in Example 9).
T1 construct: The reagent is named only PDL1/His; also called Biotin-labeled PDL1/His; Bio-PDL1; not shown: His tag
Briefly: Biacore 8K (SPR), purified antibody.
On to B1, for which the “fold increase of affinity over the parent antibody B378737” value turned out to be 12 times.

As for B2, the “fold increase of affinity over the parent antibody B378737” value was determined as 10 times.

The target in the next assay is T1, PDL1/His protein. Briefly: sandwich ELISA screen of hotspot combinations, as in Example 4. A general note: In an ELISA, binding on a coated surface is turned into a signal by an enzyme label.
Regarding B3, the binding result is reported as “binds”.

Another assay concerns the target T1, PDL1/His protein. As to the kind of experiment: hotspot screening sandwich ELISA, anti-human Fc 1.0 ug/mL, Bio-PDL1 4 ng/ml. Here is the method:
Goat-anti-human IgG Fc was subjected to serial dilution in Table 5 and coating was performed overnight at 4° C. The coating solution was discarded the next day, and the plate was washed 5 times. Blocking was performed with 1% BSA at room temperature for 1 h, and the plate was washed 5 times. 50 μL B378737 expression supernatant was added to each well, incubation was performed at room temperature for 1 h, and the plate was washed 5 times. Biotin-labeled PDL1/His protein diluted in series was added, incubation was performed at room temperature for 1 h, and the plate was washed 5 times. SA-HRP was added, incubation was performed at room temperature for 0.5 h, and the plate was washed 10 times. TMB color development was terminated after 4 min, and the absorbance at 450 nm was read. […] The sample was the mutant expressing supernatant, and the other processes were the same as above.
In the case of B4, the binding result is reported as “binds”.

Turning to B5, the binding result is on record as “binds”.

The target of a further assay is T1, PDL1/His protein. As to the kind of experiment: relative affinity ranking, sandwich ELISA, biotin-PDL1/His titrated from 5 ug/mL. The procedure:
The expression supernatants of the 11 single-point mutation molecules screened out in Example 4 and the 4 hotspot combination molecules screened out in Example 5 were subjected to relative affinity ranking. The specific process is as follows: The plate was coated with 1 μg/mL Goat-anti-human IgG Fc at 4° C. overnight. The coating solution was discarded the next day, and the plate was washed 5 times. Blocking was performed with 1% BSA at room temperature for 1 h, and the plate was washed 5 times. 50 μL of 2-fold diluted expression supernatant was added to each well and incubation was performed at room temperature for 1 h, and the plate was washed 5 times. Biotin-labeled PDL1/His diluted in series was added with 5 μg/mL in the first well, 3-fold dilution, and the last well as blank, and incubation was performed at room temperature for 1 h, and the plate was washed 5 times. SA-HRP was added, and incubation was performed at room temperature for 0.5 h, and the plate was washed 10 times. TMB color development was terminated after 4 min, and the absorbance at 450 nm was read.
Consider B6, for which the binding result is recorded as “binds”.

As to B7, the binding result was “binds”.

As for B8, the binding result is reported as “binds”.

Consider B9, for which the binding result was “binds”.

Take B10: the binding result is on record as “binds”.

Turning to B11, the binding result was “binds”.

For B12, the binding result was “binds”.

Take B13: the binding result is on record as “binds”.

As to B14, the binding result is on record as “binds”.
